# T1: Swi1 (S. cerevisiae, UniProt P09547 1-1314)
# T1 sequence: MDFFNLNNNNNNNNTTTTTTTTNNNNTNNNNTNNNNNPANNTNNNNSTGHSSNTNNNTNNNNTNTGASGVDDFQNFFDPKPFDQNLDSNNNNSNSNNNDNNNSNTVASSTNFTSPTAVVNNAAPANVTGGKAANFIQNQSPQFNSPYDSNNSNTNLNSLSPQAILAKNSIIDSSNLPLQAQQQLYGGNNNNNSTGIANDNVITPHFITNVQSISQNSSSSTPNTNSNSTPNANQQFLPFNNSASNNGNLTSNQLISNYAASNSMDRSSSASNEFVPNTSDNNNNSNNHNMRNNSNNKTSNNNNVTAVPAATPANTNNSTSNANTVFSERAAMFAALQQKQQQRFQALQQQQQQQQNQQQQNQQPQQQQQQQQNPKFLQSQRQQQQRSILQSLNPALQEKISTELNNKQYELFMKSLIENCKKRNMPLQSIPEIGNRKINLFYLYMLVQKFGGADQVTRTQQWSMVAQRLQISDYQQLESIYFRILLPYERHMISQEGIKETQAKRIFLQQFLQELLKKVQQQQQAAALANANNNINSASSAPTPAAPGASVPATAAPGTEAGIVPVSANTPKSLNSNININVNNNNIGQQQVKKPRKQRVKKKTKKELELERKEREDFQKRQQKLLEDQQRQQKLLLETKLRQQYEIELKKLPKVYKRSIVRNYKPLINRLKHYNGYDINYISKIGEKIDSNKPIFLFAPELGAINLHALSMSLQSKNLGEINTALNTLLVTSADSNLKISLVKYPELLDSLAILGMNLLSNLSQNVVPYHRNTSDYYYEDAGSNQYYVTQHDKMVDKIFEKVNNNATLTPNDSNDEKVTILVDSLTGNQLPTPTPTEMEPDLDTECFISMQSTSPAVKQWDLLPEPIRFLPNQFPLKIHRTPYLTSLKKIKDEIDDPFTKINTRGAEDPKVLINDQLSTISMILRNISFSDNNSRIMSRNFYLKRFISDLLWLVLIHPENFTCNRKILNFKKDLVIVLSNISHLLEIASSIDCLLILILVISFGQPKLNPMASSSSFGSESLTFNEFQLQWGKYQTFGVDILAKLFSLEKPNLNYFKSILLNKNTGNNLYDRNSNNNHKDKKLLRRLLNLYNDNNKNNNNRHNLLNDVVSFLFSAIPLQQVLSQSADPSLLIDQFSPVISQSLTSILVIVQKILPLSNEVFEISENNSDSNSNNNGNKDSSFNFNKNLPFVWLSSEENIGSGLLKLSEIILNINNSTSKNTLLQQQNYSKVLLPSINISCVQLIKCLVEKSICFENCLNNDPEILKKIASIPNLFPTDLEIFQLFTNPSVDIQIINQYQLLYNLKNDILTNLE
# B1: Snf5 (natural protein)
# chain: MNNQPQGTNSVPNSIGNIFSNIGTPSFNMAQIPQQLYQSLTPQQLQMIQQRHQQLLRSRLQQQQQQQQQTSPPPQTHQSPPPPPQQSQPIANQSATSTPPPPPAPHNLHPQIGQVPLAPAPINLPPQIAQLPLATQQQVLNKLRQQAIAKNNPQVVNAITVAQQQVQRQIEQQKGQQTAQTQLEQQRQLLVQQQQQQQLRNQIQRQQQQQFRHHVQIQQQQQKQQQQQQQHQQQQQQQQQQQQQQQQQQQQQQQQQQQQQQQQQQQQQGQIPQSQQVPQVRSMSGQPPTNVQPTIGQLPQLPKLNLPKYQTIQYDPPETKLPYPTYWSDKKADTDTLLYEQIIQRDKINKYSLIRETNGYDPFSIYGFSNKEYISRLWHTLKYYQDLKNTRMKSITSTSQKIPSASIWGNGYSGYGNGITNTTTRVIPQVEVGNRKHYLEDKLKVYKQAMNETSEQLVPIRLEFDQDRDRFFLRDTLLWNKNDKLIKIEDFVDDMLRDYRFEDATREQHIDTICQSIQEQIQEFQGNPYIELNQDRLGGDDLRIRIKLDIVVGQNQLIDQFEWDISNSDNCPEEFAESMCQELELPGEFVTAIAHSIREQVHMYHKSLALLGYNFDGSAIEDDDIRSRMLPTITLDDVYRPAAESKIFTPNLLQISAAELERLDKDKDRDTRRKRRQGRSNRRGMLALSGTSASNTSMNGVHNTVAAGNASSLPPGEILLPDIADIPRTFRTPVPSTLMPGGVDVGPSVESYELRNTTTYKSRPDRPKPVSPPCYIIDHIPGHSLLLSIKLPGKVNTKEEFAAAPNDTSSGTNAMLPSPESLKTKLNSNIRAGVTIPSIPNPIANHTVTNSPNPTLQPVIPGGAASKSVPTPSLPIAPPVAPHDSEATLLTNSNNGSSNNNTQNT
# B2: Snf12 (natural protein)
# chain: MSKVMKPSNGKGSRKSSKAATPDTKNFFHAKKKDPVNQDKANNASQITPTVPHSHPSDMVIPDHLAELIPELYSFQQLVDSEKRLDHFIHLRNLHMKRMVAQWERSKLSQEFLYPHLNFPNVKFLRIFISNVSENQPWQMDTNNEADLMALENATWTMRIEGRLLDNVQANDPAREKFSSFIESIVVDFKNKENDNVPSTKFNAAPEENATEGPSDKKLNLNLPLQFSLPNGDNSTTTNTDQNNATMGEETAKKDMSSTTPKLESVKWQYDPNNPVDFDGLDIKRVGSENVECTISILRKSSPEEPFMSYSPQLTAIIGLKSGTSHDAIFSIYKYIHLNELLTNDESAFENLMGNRNNHNSNTSTSKMLDAASSQVSIVKLDTQLITLLPSSLKESSPDTMKLTDLLSLINSTHLLPLQPIEIDYTVRVDKASTYGELVLDIEVPDVNALKFNNTQRESQIGAAELNENARELEQIKPKIALQDKEITSVLSNLHESNKRYRFFKKISEDPVKALNECIASTSNALKVLSGDEGYNEDMVRRANFYKENEAMLRENIEVILSNGRM
# B3: Swi3 (natural protein)
# chain: MENTLGEGSTVNASVDVDQHGNDNNSDSNANAAVAGVANTDTAGEESQQQDESLKDEATVPNTRDAESEAITVTAKQQPTMQANKLDSQETPSTEESRAQNVFGQDNEDSDNLFGETESSVSNNEANTPSIPTNPVDNENNKPAIKEDSTIQDSNGDVKNMEDVKIQKEEEPENNTVIEGVKEESQPDENTKEMDEVEEDDEDDDQPMISPDNSIFGDTKSESKQLGNTSSVANTPSEIPDAHKAEQEDIIEKTESVDKKVDSGEERNEQEREIMNDHSKSANPKKTTITRVEPETFEIPQAHEIVIPSYSKWFNLEKIHSIEVQSLPEFFTNRIPSKTPEVYMRYRNFMVNSYRLNPNEYFSVTTARRNVSGDAAALFRLHKFLTKWGLINYQVDSKLLPKNIEPPLTSQYSTRHDAPRGLFPFESYKPSVQLPDMAKLKKMMNTSDSESTLYKYLKESKRKYDEITHPPSTTDDENGDKNDNGGKMNNEVSTSTSMTGDANLLEEGETSRPLKKVKILEQIDENWSKEDLQKLLKGIQEFGADWYKVAKNVGNKSPEQCILRFLQLPIEDKFLYGDGNGKGDNDNGLGPLKYAPHLPFSKSENPVLSTIAFLVGLVNPKTVQSMTQRAIQSAESIKSQKEEISDQKPIEHIKEGSEIAISSLGYRSHIFATNEERQMNFLTNELIRLQMEKLDAKLNHLKKLEKFMELERKTLERQQENLLIQRLNFNQNSSKIVNVLSKCLNLISDSNINNSSVAEKEEIRSQIDHFKSMLSKPETLSIGKNPFNKPNIETGENHNGQSISNENDVKPISIEAPQFYRYWSA
# Tests used:
# Assay in all cases: cryo-EM structure
# Swi1 = biological target: T1, Swi1
# Swi3 = biological target: B3
# cryo-EM structure = biological target: the molecule itself
# Snf5 = biological target: B1
# Snf2 = Snf2 (S. cerevisiae, UniProt P22082 1-1703)
# Snf12 = biological target: B2
# Snf2, sequence (P22082 whole entry): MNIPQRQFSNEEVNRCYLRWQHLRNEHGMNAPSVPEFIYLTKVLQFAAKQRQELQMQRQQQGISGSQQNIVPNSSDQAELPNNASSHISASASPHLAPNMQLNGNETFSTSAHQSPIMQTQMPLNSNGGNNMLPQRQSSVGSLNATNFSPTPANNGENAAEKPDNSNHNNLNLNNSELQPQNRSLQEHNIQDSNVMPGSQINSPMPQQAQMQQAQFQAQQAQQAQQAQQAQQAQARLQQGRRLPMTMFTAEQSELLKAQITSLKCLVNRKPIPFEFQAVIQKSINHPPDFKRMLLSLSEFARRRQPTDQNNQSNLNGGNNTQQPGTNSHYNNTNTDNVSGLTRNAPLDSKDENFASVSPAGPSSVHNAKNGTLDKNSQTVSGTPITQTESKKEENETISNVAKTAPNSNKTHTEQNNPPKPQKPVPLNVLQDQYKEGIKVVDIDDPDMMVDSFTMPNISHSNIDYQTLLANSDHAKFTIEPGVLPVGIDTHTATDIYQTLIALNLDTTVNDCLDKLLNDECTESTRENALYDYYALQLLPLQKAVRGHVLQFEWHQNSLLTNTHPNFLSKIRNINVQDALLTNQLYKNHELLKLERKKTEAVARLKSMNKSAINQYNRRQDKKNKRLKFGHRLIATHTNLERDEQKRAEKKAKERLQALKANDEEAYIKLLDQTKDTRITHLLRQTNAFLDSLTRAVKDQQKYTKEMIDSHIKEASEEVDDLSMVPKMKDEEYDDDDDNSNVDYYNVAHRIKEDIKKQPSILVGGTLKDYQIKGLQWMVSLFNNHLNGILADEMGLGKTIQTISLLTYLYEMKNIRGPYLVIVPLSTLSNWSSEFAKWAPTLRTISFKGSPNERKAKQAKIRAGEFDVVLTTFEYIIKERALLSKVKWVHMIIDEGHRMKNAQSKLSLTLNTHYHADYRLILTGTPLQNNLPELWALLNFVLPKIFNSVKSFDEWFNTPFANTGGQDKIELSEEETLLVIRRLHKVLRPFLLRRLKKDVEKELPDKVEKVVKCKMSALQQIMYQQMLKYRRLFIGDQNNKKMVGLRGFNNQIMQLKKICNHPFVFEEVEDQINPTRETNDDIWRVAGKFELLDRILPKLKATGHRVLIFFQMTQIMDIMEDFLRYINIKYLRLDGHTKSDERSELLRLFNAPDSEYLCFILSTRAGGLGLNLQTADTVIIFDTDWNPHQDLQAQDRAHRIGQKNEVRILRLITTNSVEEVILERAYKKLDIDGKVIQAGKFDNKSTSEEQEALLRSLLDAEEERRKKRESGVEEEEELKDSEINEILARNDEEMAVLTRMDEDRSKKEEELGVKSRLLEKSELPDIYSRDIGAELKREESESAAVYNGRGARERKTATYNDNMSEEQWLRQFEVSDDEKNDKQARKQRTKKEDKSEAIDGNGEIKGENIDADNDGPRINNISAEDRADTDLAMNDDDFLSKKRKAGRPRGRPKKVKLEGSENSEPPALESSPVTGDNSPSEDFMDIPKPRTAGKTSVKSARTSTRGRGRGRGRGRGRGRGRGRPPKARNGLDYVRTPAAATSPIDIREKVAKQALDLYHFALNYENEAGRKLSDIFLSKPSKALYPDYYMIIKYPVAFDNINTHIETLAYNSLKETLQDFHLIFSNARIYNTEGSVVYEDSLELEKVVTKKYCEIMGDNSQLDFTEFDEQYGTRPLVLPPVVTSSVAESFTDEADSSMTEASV
binding result (Swi1),binding result (Swi3),binding result (Snf5),binding result (Snf2),binding result (Snf12),Binder,stoichiometry N (cryo-EM structure)
binds,–,–,–,–,B1,–
binds,binds,–,–,–,B2,–
binds,–,binds,binds,–,B3,2
binds,binds,–,–,binds,Snf6 (natural protein) MGVIKKKRSHHGKASRQQYYSGVQVGGVGSMGAINNNIPSLTSFAEENNYQYGYSGSSAGMNGRSLTYAQQQLNKQRQDFERVRLRPEQLSNIIHDESDTISFRSNLLKNFISSNDAFNMLSLTTVPCDRIEKSRLFSEKTIRYLMQKQHEMKTQAAELQEKPLTPLKYTKLIAAAEDGSRSTKDMIDAVFEQDSHLRYQPDGVVVHRDDPALVGKLRGDLREAPADYWTHAYRDVLAQYHEAKERIRQKEVTAGEAQDEASLQQQQQQDLQQQQQVVTTVASQSPHATATEKEPVPAVVDDPLENMFGDYSNEPFNTNFDDEFGDLDAVFF,–
–,binds,binds,–,–,Swp82 (natural protein) MLGEDEGNTVLEKGNNPSVKQGEVGAVFIVPKILIREHERVILKQILQILDQDELVQPPLDKFPYKKLELPKYIDELKTRDATNTSYKMIQLDAYGEKKVGSNGELFGGRHYLFNTFTFTAHMGVLLVLLQDVIKVLYQSNATHDEDEFIVQHDQILVMETSEEQTKFLAKNGVIPEESKGSFKYITARSAFVEFGASVIAGGQRIVDDYWESLAKKQNLSSHQRVFKLSTNLISKISLLRPSFQNNRISNANEISANTNNTCTISTSKFESQYPIVTEQPSAEIREAYIENFAKGEHISAIVPGQSISGTLELSAQFRVPRYHSKNSFQQALQMKAMDIPIGRHEELLAQYESQAPDGSASISLPNHIPSVNPSNKPIKRMLSSILDINVSSSKNKKSEENEMIKPMNKGQHKNNTSLNINGWKFESLPLKSAENSGKQQYYRGLPLYEKNTLLERLKQLTPNEIKELEHLHDAVFVNTGLQNVRKVRTKKWKKYWQYKAGIPIGLKRSQLDEFKNKYLKDVLAQTSVTTNFNEITNTDETITTKRVPNPNFLGNCNIKDFKPPYIYSHVNKVPQNVAGDKTAVKLDTEVKNTNANPVVATDPVAAKPDNLANFSNEVAMNN,–
